Measurements: paper PMC3233348 (2012)

Key:
[1] = target: methylamine dehydrogenase (MADH) (Paracoccus denitrificans) (UniProt P22619); settings: cited from earlier work
[2] = target: T1, methylamine dehydrogenase (MADH) (Paracoccus denitrificans, UniProt P22619); experiment: steady-state kinetics competitive inhibition
T1 chain 1: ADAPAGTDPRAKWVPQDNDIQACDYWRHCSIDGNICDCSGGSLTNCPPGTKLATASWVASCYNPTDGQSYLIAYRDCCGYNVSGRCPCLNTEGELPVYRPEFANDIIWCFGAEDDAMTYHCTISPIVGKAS
T1 chain 2: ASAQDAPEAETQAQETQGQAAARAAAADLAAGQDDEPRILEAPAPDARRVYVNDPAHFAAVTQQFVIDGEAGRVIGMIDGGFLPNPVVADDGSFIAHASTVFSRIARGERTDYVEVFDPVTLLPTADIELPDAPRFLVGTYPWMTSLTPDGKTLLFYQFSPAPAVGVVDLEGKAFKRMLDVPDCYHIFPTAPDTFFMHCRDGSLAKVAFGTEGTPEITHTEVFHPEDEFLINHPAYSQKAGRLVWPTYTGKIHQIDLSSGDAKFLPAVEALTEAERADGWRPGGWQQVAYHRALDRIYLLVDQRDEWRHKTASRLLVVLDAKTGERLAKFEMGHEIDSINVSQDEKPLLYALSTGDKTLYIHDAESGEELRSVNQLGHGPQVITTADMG

For amicyanin (from UniProt P22364), the Kd [1] is given as 5 µM.

B1: M98K amicyanin (protein)
chain: DKATIPSESPFAAAEVADGAIVVDIAKMKYETPELHVKVGDTVTWINREAMPHNVHFVAGVLGEAALKGPMKKKEQAYSLTFTEAGTYDYHCTPHPFMRGKVVVE
Work on B1 yielded a Ki [2] of 7.2 µM.
